According to patent US20250262274A1:

Biological target: VMRFL (VEGFR2-c-MPL chimeric receptor, D1-7 linked to the c-MPL TM) (human)
Assay: cell-based or functional assay

In the case of “recombinant human VEGF-A165 (from UniProt P15692 27-191) (ligand)”, the EC50 of % pSTAT5+ cells (VEGF dose-dependent STAT5 phosphorylation in VMRFL+ T cells) was 106 pg/ml and the EC50 of pSTAT5 MFI (VEGF dose-dependent STAT5 phosphorylation in VMRFL+ T cells) was 144 pg/mL.
